In US20090175866A1 (published 2009):
Positions count from the first letter of the chain named.

T1: FGFR1 (Table 1) (UniProt P11362 22-376, limits assumed)
T1 construct: the construct is not described
T1 sequence (looked up): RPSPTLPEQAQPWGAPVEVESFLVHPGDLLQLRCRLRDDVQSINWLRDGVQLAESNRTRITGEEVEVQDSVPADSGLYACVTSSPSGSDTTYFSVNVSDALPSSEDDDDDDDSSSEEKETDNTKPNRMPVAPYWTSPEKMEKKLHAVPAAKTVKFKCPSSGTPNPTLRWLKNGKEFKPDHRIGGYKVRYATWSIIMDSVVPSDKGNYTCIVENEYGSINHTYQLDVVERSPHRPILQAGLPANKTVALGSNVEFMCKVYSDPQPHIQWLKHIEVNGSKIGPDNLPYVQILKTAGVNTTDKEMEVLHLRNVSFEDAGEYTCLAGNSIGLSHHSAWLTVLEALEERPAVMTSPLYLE

B1: PRO-026 (Fab, V domains shown)
VH: QVQLVQSGAEVKKPGASVKVSCKASGYTFTSYYMHWVRQAPGQGLEWMGWINPNSGGTNYAQKFQGRVTMTRDTSISTAYMELSSLRSEDTAVYYCARGYWYAYFTYINYGYFDNWGQGTLVTVSS
VL: DIALTQPASVSGSPGQSITISCTGTSSDVGGYNYVSWYQQHPGKAPKLMIYDVSNRPSGVSNRFSGSKSGNTASLTISGLQAEDEADYYCQSYDNNSDVVFGGGTKLTVLG
notes: HuCAL clone; the VL is headed 'MS-Pro-26-VL'; also called MS-Pro-26
B2: PRO-055 (Fab, V domains shown)
VH: QVQLVQSGAEVKKPGASVKVSCKASGYTFTSYYMHWVRQAPGQGLEWMGWINPNSGGTNYAQKFQGRVTMTRDTSISTAYMELSSLRSEDTAVYYCARSMNSTMYWYLRRVLFDHWGQGTLVTVSS
VL: B1 VL with N95M, N96Y, S97N, D98Y, V99I
B3: PRO-012 (Fab, V domains shown)
VH: QVQLKESGPALVKPTQTLTLTCTFSGFSLSTSGVGVGWIRQPPGKALEWLALIDWDDDKYYSTSLKTRLTISKDTSKNQVVLTMTNMDPVDTATYYCARYHSWYEMGYYGSTVGYMFDYWGQGTLVTVSS
VL: DIELTQPPSVSVAPGQTARISCSGDALGDKYASWYQQKPGQAPVLVIYDDSDRPSGIPERFSGSNSGNTATLTISGTQAEDEADYYCQSYDFDFAVFGGGTKLTVLG
notes: HuCAL clone; the IC50 may be of the Fab-dHLX format
B4: PRO-054 (Fab, V domains shown)
VH: QVQLVQSGAEVKKPGASVKVSCKASGYTFTSYYMHWVRQAPGQGLEWMGWINPNSGGTNYAQKFQGRVTMTRDTSISTAYMELSSLRSEDTAVYYCARNMAYTNYQYVNMPHFDYWGQGTLVTVSS
VL: B3 VL with F92Y, D93F, F94K, A95L
notes: HuCAL clone
B5: PRO-001 Fab (Fab, V domains shown)
VH: QVQLQQSGPGLVKPSQTLSLTCAISGDSVSSNSAAWNWIRQSPGRGLEWLGRTYYRSKWYNDYAVSVKSRITINPDTSKNQFSLQLNSVTPEDTAVYYCARSYYPDFDYWGQGTLVTVSS
VL: DIELTQPPSVSVAPGQTARISCSGDALGDKYASWYQQKPGQAPVLVIYDDSDRPSGIPERFSGSNSGNTATLTISGTQAEDEADYYCQSYDGPDLWVFGGGTKLTVLG
notes: Human Fab from the HuCAL-Fab-1 library; also called human anti-FGFR3 Fab PRO-001; anti-FGFR3 antibody
B6: PRO-002 (Fab, V domains shown)
VH: QVQLVQSGAEVKKPGASVKVSCKASGYTFTSYYMHWVRQAPGQGLEWMGWINPNSGGTNYAQKFQGRVTMTRDTSISTAYMELSSLRSEDTAVYYCARDFLGYEFDYWGQGTLVTVSS
VL: B5 VL with G92Y, P93S, D94A, L95D, W96Y
notes: as for B3
B7: PRO-029 (Fab, V domains shown)
VH: QVQLVQSGAEVKKPGASVKVSCKASGYTFTSYYMHWVRQAPGQGLEWMGWINPNSGGTNYAQKFQGRVTMTRDTSISTAYMELSSLRSEDTAVYYCARTWQYSYFYYLDGGYYFDIWGQGTLVTVSS
VL: DIVLTQSPATLSLSPGERATLSCRASQSVSSSYLAWYQQKPGQAPRLLIYGASSRATGVPARFSGSGSGTDFTLTISSLEPEDFATYYCQQTNNAPVTFGQGTKVEIKR
notes: HuCAL clone
B8: PRO-021 (Fab, V domains shown)
VH: QVQLVQSGAEVKKPGSSVKVSCKASGGTFSSYAISWVRQAPGQGLEWMGGIIPIFGTANYAQKFQGRVTITADESTSTAYMELSSLRSEDTAVYYCARDNWFKPFSDVWGQGTLVTVSS
VL: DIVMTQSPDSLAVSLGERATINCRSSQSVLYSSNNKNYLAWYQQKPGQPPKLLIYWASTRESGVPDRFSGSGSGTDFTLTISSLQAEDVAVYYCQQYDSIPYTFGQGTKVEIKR
notes: as for B3
B9: PRO-024 (Fab, V domains shown)
VH: B8 VH with D99V, W101H, F102W, K103T, P104Y, F105T, S106F, V108Y
VL: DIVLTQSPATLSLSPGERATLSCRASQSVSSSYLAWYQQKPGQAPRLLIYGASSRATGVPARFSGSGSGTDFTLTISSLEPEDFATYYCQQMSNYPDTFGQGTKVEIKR

Experiments:
[1] = molecular target: T1, FGFR1 (Table 1); assay: BIAcore and/or FACS
[2] = molecular target: T2, wild type FGFR3 expressed on cells (UniProt P22607 23-806, limits assumed); assay: FACS
T2 construct: whole, on cells; the myeloma cell lines and patient cells are human; also called WT FGFR3; B9-FGFR3^WT
T2 sequence (P22607 23-806 limits assumed): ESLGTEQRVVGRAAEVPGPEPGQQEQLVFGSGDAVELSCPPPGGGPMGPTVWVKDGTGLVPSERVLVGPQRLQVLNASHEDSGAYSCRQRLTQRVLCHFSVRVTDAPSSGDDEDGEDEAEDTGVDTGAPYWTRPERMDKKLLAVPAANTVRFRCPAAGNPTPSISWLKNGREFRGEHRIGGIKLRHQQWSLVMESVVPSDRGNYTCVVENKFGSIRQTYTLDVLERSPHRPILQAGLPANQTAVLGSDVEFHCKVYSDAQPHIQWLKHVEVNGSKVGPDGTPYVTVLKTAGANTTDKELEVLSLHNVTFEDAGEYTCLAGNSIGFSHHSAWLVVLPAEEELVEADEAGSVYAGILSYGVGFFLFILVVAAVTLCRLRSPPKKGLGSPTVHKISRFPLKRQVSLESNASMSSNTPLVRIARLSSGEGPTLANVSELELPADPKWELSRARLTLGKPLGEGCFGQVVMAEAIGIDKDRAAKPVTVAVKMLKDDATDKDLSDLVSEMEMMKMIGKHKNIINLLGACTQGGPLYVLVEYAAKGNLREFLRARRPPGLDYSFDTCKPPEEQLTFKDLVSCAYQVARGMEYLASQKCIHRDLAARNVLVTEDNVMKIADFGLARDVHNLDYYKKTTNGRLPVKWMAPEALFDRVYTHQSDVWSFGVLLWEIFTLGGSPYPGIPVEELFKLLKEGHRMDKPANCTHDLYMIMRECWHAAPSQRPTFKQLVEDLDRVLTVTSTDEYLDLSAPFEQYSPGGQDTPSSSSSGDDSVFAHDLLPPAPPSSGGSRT

[3] = molecular target: T2, wild type FGFR3 expressed on cells; assay: cell-based or functional assay
[4] = molecular target: FGFR3-F384L expressed on B9 cells (UniProt P22607 23-806); assay: cell-based or functional assay
FGFR3-F384L expressed on B9 cells, sequence (P22607 23-806 F384L limits assumed): as the sequence (P22607 23-806 limits assumed) above, with F362L counted along it

[5] = molecular target: T2, wild type FGFR3 expressed on cells; assay: cell-based or functional assay; remark: listed apart in the source
[6] = molecular target: FGFR3-Y373C expressed on B9 cells (UniProt P22607 23-806); assay: cell-based or functional assay
FGFR3-Y373C expressed on B9 cells, sequence (P22607 23-806 Y373C limits assumed): as the sequence (P22607 23-806 limits assumed) above, with Y351C counted along it

Row | Binder | Kd [1] | Kd [2] | IC50 FGFR3 (FGF9), FDCP-FGFR3 proliferation assay (dHLX format) [3] | IC50 of FGF-stimulated growth of B9 cells expressing FGFR3 F384L [4] | IC50 of FGF stimulated proliferation of FDCP-FGFR3 cells (XTT) [5] | IC50 of FGF-stimulated growth of B9 cells expressing Y373C-FGFR3 [6]
1 | B1 | 32 nM | 1.4 nM | 70 nM |  |  | 
2 | B2 |  |  | 34 nM |  |  | 
3 | B3 |  | 6.5 nM | 58 nM |  |  | 
4 | B4 | 2.5 nM |  | 45 nM |  |  | 
5 | B5 |  | 0.7 nM | 19 nM | ~3 µg/mL | 0.5 µg/mL | ~3 µg/mL
6 | B6 |  | 43 nM | 360 nM |  |  | 
7 | B7 | 29 nM | < 1 nM | 20 nM |  |  | 
8 | B8 |  | 1.1 nM | 50 nM |  |  | 
9 | B9 |  |  | 70 nM |  |  | 
